# Measurements published in patent publication US20170355766A1 (Xencor, published 2017).
# Numbering of substitutions follows the chain as printed. Names and notes keep the numbering of the source.
# T1: human FcγRIIb receptor protein (R&D Systems) (human, UniProt P31994 46-217)
# T1 construct: Analyte injected over antibodies captured on a protein A/G chip (Biacore); also called CD32b
# T1 sequence (looked up): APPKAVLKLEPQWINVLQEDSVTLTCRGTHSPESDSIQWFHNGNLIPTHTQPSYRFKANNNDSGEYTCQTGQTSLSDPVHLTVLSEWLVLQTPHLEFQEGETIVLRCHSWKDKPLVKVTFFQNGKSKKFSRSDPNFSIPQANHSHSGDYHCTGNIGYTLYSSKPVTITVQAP
# T2: FcγRIIaR (human, UniProt P12318)
# T2 construct: recombinant receptor protein with 6xHis and GST tags; also called R131 FcγRIIa
# T2 sequence (receptor, looked up): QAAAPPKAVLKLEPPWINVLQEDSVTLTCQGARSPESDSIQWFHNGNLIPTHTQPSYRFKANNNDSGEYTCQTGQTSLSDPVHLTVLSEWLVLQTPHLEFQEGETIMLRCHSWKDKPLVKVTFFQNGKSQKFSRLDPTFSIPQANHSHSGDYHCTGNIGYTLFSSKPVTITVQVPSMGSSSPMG
# B1: A327G (antibody, human IgG1, kappa)
# heavy: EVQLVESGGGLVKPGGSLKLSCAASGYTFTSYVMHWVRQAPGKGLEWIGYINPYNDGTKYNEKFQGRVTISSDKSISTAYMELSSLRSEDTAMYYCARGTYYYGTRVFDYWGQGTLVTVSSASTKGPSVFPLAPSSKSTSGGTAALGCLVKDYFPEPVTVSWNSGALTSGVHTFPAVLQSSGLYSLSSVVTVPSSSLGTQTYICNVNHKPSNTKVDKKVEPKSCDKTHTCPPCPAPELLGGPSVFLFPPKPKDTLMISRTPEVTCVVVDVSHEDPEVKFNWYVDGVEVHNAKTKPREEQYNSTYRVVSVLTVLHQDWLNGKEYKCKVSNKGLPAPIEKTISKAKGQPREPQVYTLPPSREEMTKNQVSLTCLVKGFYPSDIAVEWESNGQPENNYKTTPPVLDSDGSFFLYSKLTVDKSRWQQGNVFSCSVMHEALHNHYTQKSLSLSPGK
# light: DIVMTQSPATLSLSPGERATLSCRSSKSLQNVNGNTYLYWFQQKPGQSPQLLIYRMSNLNSGVPDRFSGSGSGTEFTLTISSLEPEDFAVYYCMQHLEYPITFGAGTKLEIKRTVAAPSVFIFPPSDEQLKSGTASVVCLLNNFYPREAKVQWKVDNALQSGNSQESVTEQDSKDSTYSLSSTLTLSKADYEKHKVYACEVTHQGLSSPVTKSFNRGEC
# notes: HuAM4G7 IgG1 Fc variant
# B2: G237V (antibody, human IgG1, kappa)
# heavy: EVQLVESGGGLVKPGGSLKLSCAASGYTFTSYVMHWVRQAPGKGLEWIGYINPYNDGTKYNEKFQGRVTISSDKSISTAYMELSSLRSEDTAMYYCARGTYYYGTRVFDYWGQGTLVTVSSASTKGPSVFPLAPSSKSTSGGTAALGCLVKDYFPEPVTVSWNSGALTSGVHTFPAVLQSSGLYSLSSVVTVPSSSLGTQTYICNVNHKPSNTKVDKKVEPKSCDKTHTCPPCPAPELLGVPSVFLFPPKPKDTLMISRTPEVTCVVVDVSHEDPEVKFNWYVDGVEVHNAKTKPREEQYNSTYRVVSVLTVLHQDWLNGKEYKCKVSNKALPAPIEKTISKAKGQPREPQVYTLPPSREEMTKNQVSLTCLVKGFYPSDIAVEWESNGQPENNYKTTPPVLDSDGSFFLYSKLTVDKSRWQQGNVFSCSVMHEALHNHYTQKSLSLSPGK
# light: B1 light
# notes: HuAM4G7 IgG1 Fc variant
# B3: S267E/L328Q (antibody, human IgG1, kappa)
# heavy: not shown
# light: B1 light
# notes: HuAM4G7 IgG1 Fc variant
# B4: S267E/H268D (antibody, human IgG1, kappa)
# heavy: not shown
# light: B1 light
# notes: HuAM4G7 IgG1 Fc variant
# B5: S239D/S267E/I332E (antibody, human IgG1, kappa)
# heavy: EVQLVESGGGLVKPGGSLKLSCAASGYTFTSYVMHWVRQAPGKGLEWIGYINPYNDGTKYNEKFQGRVTISSDKSISTAYMELSSLRSEDTAMYYCARGTYYYGTRVFDYWGQGTLVTVSSASTKGPSVFPLAPSSKSTSGGTAALGCLVKDYFPEPVTVSWNSGALTSGVHTFPAVLQSSGLYSLSSVVTVPSSSLGTQTYICNVNHKPSNTKVDKKVEPKSCDKTHTCPPCPAPELLGGPDVFLFPPKPKDTLMISRTPEVTCVVVDVEHEDPEVKFNWYVDGVEVHNAKTKPREEQYNSTYRVVSVLTVLHQDWLNGKEYKCKVSNKALPAPEEKTISKAKGQPREPQVYTLPPSREEMTKNQVSLTCLVKGFYPSDIAVEWESNGQPENNYKTTPPVLDSDGSFFLYSKLTVDKSRWQQGNVFSCSVMHEALHNHYTQKSLSLSPGK
# light: B1 light
# notes: HuAM4G7 IgG1 Fc variant
# B6: H268N (antibody, human IgG1, kappa)
# heavy: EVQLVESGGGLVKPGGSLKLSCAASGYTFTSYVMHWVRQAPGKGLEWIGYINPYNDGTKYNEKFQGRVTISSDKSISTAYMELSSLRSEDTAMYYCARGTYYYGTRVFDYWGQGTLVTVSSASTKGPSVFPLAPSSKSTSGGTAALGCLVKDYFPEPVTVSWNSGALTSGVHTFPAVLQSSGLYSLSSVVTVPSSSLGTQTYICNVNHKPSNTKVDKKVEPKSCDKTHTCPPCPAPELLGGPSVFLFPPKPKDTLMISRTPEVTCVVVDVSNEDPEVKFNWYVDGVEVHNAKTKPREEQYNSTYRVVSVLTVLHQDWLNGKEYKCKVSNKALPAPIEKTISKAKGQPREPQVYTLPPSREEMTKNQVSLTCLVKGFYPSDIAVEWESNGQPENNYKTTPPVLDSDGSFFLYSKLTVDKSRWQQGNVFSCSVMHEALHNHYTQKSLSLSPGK
# light: B1 light
# notes: HuAM4G7 IgG1 Fc variant
# B7: S267A/H268D/L328Y (antibody, human IgG1, kappa)
# heavy: B5 heavy with D243S, E271A, H272D, L332Y, E336I
# light: B1 light
# notes: HuAM4G7 IgG1 Fc variant
# B8: S239D/S267D (antibody, human IgG1, kappa)
# heavy: not shown
# light: B1 light
# notes: HuAM4G7 IgG1 Fc variant
# B9: G237Y (antibody, human IgG1, kappa)
# heavy: not shown
# light: B1 light
# notes: HuAM4G7 IgG1 Fc variant
# B10: G236H (antibody, human IgG1, kappa)
# heavy: not shown
# light: B1 light
# notes: HuAM4G7 IgG1 Fc variant
# B11: S267A/L328Y/I332E (antibody, human IgG1, kappa)
# heavy: B5 heavy with D243S, E271A, L332Y
# light: B1 light
# notes: HuAM4G7 IgG1 Fc variant
# B12: S267D/A327E (antibody, human IgG1, kappa)
# heavy: not shown
# light: B1 light
# notes: HuAM4G7 IgG1 Fc variant
# B13: G236W (antibody, human IgG1, kappa)
# heavy: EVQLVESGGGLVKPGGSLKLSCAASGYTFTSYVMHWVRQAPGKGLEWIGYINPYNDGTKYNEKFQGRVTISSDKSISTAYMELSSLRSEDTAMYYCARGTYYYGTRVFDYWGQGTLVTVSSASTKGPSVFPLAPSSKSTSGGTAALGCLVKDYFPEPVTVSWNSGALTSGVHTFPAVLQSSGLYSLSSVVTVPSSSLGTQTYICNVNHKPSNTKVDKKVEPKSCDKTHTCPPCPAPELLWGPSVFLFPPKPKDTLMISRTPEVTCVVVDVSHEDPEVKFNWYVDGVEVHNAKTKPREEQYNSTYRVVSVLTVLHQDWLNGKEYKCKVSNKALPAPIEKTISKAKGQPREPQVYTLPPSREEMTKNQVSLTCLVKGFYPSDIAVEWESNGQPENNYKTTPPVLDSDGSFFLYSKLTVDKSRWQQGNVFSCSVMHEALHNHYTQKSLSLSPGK
# light: B1 light
# notes: HuAM4G7 IgG1 Fc variant
# B14: D265E (antibody, human IgG1, kappa)
# heavy: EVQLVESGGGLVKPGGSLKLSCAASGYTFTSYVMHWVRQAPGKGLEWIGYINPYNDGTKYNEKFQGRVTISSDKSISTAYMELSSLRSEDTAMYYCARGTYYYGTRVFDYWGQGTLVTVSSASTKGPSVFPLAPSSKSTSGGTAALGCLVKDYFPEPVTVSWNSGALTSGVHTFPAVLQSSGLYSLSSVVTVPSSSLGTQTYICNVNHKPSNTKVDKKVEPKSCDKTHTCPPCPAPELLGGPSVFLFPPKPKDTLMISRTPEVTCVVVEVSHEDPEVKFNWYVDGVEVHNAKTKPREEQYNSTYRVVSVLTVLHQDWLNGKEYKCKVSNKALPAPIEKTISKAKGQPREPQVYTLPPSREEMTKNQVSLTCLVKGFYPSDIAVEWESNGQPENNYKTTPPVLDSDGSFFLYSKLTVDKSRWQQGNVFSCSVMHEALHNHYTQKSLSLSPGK
# light: B1 light
# notes: HuAM4G7 IgG1 Fc variant
# B15: S267D/A327D (antibody, human IgG1, kappa)
# heavy: not shown
# light: B1 light
# notes: HuAM4G7 IgG1 Fc variant
# B16: L234G (antibody, human IgG1, kappa)
# heavy: not shown
# light: B1 light
# notes: HuAM4G7 IgG1 Fc variant
# B17: S239D/L328F/I332E (antibody, human IgG1, kappa)
# heavy: B5 heavy with E271S, L332F
# light: B1 light
# notes: HuAM4G7 IgG1 Fc variant
# B18: S239D/L328Y/I332E (antibody, human IgG1, kappa)
# heavy: B5 heavy with E271S, L332Y
# light: B1 light
# notes: HuAM4G7 IgG1 Fc variant
# B19: G236P (antibody, human IgG1, kappa)
# heavy: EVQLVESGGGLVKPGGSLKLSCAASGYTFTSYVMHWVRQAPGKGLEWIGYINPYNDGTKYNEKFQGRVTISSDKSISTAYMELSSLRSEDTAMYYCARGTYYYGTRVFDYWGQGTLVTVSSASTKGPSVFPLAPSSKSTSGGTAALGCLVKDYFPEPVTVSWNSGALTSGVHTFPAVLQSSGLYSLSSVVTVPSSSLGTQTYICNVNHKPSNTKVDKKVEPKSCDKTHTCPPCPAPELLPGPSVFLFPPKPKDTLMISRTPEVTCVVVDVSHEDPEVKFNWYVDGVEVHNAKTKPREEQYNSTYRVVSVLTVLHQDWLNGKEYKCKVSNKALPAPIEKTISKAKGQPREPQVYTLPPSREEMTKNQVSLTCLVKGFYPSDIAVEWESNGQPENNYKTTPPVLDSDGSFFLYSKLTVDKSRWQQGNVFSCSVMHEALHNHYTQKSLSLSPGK
# light: B1 light
# notes: HuAM4G7 IgG1 Fc variant
# B20: G236E/S267E (antibody, human IgG1, kappa)
# heavy: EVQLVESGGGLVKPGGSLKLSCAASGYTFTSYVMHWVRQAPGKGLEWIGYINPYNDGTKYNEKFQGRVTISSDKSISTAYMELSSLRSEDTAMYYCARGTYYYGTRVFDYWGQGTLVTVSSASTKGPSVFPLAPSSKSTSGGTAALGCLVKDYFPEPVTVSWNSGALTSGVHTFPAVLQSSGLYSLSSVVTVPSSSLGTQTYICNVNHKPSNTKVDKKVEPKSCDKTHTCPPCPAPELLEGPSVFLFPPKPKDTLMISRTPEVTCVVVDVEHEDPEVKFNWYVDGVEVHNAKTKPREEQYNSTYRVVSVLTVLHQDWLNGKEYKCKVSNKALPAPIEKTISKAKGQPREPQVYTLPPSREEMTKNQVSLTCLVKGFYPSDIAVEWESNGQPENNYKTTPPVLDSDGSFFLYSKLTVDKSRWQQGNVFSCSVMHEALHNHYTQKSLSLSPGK
# light: B1 light
# notes: HuAM4G7 IgG1 Fc variant
# B21: G236Q (antibody, human IgG1, kappa)
# heavy: not shown
# light: B1 light
# notes: HuAM4G7 IgG1 Fc variant
# B22: S267D/H268D (antibody, human IgG1, kappa)
# heavy: not shown
# light: B1 light
# notes: HuAM4G7 IgG1 Fc variant
# B23: S267D/H268E (antibody, human IgG1, kappa)
# heavy: not shown
# light: B1 light
# notes: HuAM4G7 IgG1 Fc variant
# B24: L234D/G236N/S267E (antibody, human IgG1, kappa)
# heavy: B5 heavy with L238D, G240N, D243S, E336I
# light: B1 light
# notes: HuAM4G7 IgG1 Fc variant
# B25: S239D/S267A/L328Y (antibody, human IgG1, kappa)
# heavy: B5 heavy with E271A, L332Y, E336I
# light: B1 light
# notes: HuAM4G7 IgG1 Fc variant
# B26: G237Q (antibody, human IgG1, kappa)
# heavy: not shown
# light: B1 light
# notes: HuAM4G7 IgG1 Fc variant
# B27: S239D/L328Y (antibody, human IgG1, kappa)
# heavy: not shown
# light: B1 light
# notes: HuAM4G7 IgG1 Fc variant
# B28: G237S (antibody, human IgG1, kappa)
# heavy: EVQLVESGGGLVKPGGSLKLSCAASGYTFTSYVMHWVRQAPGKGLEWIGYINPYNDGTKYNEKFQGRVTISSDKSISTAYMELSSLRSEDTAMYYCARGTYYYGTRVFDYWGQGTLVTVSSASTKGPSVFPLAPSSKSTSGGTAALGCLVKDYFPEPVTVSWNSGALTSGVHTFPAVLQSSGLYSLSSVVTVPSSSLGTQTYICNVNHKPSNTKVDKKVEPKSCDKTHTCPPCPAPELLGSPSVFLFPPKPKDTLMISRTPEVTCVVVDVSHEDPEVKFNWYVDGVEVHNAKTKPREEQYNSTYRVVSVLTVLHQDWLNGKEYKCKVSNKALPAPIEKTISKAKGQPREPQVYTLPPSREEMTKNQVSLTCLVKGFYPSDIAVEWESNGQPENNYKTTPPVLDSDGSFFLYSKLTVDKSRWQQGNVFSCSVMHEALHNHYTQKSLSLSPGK
# light: B1 light
# notes: HuAM4G7 IgG1 Fc variant
# B29: G236M (antibody, human IgG1, kappa)
# heavy: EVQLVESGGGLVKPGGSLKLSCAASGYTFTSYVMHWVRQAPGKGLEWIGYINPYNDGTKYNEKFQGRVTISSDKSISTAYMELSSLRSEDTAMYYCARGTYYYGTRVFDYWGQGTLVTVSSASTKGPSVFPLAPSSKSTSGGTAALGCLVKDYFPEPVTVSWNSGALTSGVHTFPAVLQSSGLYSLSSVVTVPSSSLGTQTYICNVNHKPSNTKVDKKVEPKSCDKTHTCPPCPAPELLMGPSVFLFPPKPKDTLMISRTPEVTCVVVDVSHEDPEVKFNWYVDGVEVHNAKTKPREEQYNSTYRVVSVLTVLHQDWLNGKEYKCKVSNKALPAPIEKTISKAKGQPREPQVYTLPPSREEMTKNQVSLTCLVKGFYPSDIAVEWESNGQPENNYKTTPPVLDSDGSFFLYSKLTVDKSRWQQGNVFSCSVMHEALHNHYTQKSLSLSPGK
# light: B1 light
# notes: HuAM4G7 IgG1 Fc variant
# B30: L234I (antibody, human IgG1, kappa)
# heavy: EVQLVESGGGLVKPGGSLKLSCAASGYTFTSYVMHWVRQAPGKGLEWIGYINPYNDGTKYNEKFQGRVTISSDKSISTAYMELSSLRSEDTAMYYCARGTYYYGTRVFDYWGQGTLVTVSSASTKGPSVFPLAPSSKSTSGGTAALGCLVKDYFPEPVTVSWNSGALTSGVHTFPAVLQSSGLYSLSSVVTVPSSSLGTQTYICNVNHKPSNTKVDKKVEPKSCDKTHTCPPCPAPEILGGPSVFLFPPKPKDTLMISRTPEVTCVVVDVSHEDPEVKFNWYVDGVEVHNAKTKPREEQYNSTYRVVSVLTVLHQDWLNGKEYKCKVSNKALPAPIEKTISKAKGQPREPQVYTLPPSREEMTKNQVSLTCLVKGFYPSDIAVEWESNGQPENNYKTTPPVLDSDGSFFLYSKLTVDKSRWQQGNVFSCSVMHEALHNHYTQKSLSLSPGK
# light: B1 light
# notes: HuAM4G7 IgG1 Fc variant
# B31: A327Q (antibody, human IgG1, kappa)
# heavy: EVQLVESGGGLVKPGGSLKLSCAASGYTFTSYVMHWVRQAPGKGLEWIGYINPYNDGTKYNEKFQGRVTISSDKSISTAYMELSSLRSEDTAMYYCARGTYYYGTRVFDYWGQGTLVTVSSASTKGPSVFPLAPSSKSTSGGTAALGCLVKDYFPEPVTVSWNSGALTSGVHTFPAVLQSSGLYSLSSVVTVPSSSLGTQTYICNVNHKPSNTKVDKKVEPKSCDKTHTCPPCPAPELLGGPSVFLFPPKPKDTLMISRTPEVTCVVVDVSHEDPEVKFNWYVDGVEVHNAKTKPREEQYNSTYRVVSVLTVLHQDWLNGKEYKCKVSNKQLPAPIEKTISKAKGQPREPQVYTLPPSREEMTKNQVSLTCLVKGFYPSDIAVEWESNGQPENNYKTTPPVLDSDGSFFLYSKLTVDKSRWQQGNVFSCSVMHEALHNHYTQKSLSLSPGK
# light: B1 light
# notes: HuAM4G7 IgG1 Fc variant
# B32: L235Q (antibody, human IgG1, kappa)
# heavy: not shown
# light: B1 light
# notes: HuAM4G7 IgG1 Fc variant
# B33: H268Q (antibody, human IgG1, kappa)
# heavy: not shown
# light: B1 light
# notes: HuAM4G7 IgG1 Fc variant
# B34: G236V (antibody, human IgG1, kappa)
# heavy: not shown
# light: B1 light
# notes: HuAM4G7 IgG1 Fc variant
# B35: L235P (antibody, human IgG1, kappa)
# heavy: not shown
# light: B1 light
# notes: HuAM4G7 IgG1 Fc variant
# B36: L235N (antibody, human IgG1, kappa)
# heavy: not shown
# light: B1 light
# notes: HuAM4G7 IgG1 Fc variant
# Molecular target: T1, human FcγRIIb receptor protein (R&D …)
# Experiment: SPR (Biacore)
Fold FcγRIIb [fold],binding result,Binder
0.353,–,B1
0.147,–,B2
12.1,–,B3
33.3,–,B4
124,–,B5
1.17,–,B6
10.7,–,B7
22.3,–,B8
0.33,–,B9
–,no binding,B10
13.5,–,B11
12.1,–,B12
0.147,–,B13
0.417,–,B14
6.89,–,B15
0.147,–,B16

Fold FcγRIIb [fold],binding result,Binder
8.34,–,B17
7.41,–,B18
0.147,–,B19
11.4,–,B20
0.147,–,B21
14.2,–,B22
17.8,–,B23
5.11,–,B24
19.8,–,B25
0.147,–,B26
5.56,–,B27
0.147,–,B28
0.147,–,B29
0.108,–,B30
0.011,–,B31

# Molecular target: T2, FcγRIIaR
# Experiment: SPR (Biacore)
row,Fold FcγRIIaR [fold],Binder
1,0.319,B1
2,2.04,B32
3,0.0342,B2
4,1.79,B6
5,0.902,B9
6,0.135,B10
7,0.0859,B13
8,0.307,B14
9,0.0859,B16
10,0.0859,B19
11,1.58,B33
12,36.5,B20
13,0.0859,B21
14,0.106,B34
15,0.728,B24
16,0.0859,B26
17,0.122,B35
18,0.0356,B36
19,0.081,B28
20,0.0859,B29
21,0.0554,B30
22,0.634,B31
